Data on two molecules can be found in patent publication US20150051149A1 (published 2015).

The target in this assay is T1, human PXR-GST (Invitrogen) (human, UniProt O75469 111-434, limits assumed).
T1 construct: Captured on an anti-GST antibody chip; also called GST-PXR; GST-tagged PXR; not shown: GST tag
T1 sequence (looked up): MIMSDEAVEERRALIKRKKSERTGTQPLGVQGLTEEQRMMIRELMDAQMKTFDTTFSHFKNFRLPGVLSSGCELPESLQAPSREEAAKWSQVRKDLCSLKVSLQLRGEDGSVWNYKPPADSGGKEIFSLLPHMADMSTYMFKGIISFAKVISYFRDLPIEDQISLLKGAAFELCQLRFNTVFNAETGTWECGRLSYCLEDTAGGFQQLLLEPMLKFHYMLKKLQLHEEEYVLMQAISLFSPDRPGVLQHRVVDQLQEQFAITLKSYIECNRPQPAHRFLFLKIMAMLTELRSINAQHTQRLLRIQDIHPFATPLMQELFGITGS
Put plainly: SPR, Biacore T100, human PXR-GST captured on anti-GST antibody.

B1: Adnectin-3 (designed binder)
chain: MASTSGVSDVPRDLEVVAATPTSLLISWDAPAVPVSKYVIYYWPGALISSMQAFKVPGSKSTATISGLKPGVLYSIVVDALTGDGQGSYVWDPITITYRTEGSGSHHHHHH
As for B1, the kon – broadly, a measure of how fast the partners come together – amounted to 16200 M⁻¹ s⁻¹.

B2: Adnectin-2 (designed binder)
chain: MASTSGVSDVPRDLEVVAATPTSLLISWDAPAVTVNNYRITYQPLLQGSSIQHFDVPGSKSTATISGLKPGVGYQITVYASTYTHSKAYYSLPISIYYRTEGSGSHHHHHH
Molecule B2 displayed a kon of 162000 M⁻¹ s⁻¹.
